# Assay results taken from the nanobody polyreactivity screen of Harvey et al. (2022).
# Assay: yeast display, Sf9 membrane polyspecificity reagent, FACS + sequencing; frameworks hold sequencing errors
# Summary of the method: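 A synthetic nanobody library was expressed on Saccharomyces cerevisiae BJ5465 by galactose induction for 36–48 hours. The library was stained for 1 hour at 4 °C with 10% biotinylated, detergent-solubilized Sf9 membrane reagent and enriched with streptavidin microbeads before FACS. Low and high (top ~1%) gates were set on anti-HA fluorescence for expression and streptavidin fluorescence for reagent binding, and each polyreactivity label reflects the gate of origin.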
row,Sequence,polyreactivity (PSR sort gate)
1,QVQLVESGGGLVQAGGSLRLSCAASGSTFINYARGWYSQAPGKERELVAVITSDDGSTYDADSVKGRFTISRDNAKNTVYLQMNSLKPEDTAVYYCAAYYYDQRYRPGPWYDYWGQGTQVTVSS,low polyreactivity
2,QVQLVESGGGLVQAGGSLRLSCAASGRIFGLNTMGRYRQAPGKERELVAAITSSAGSTYYADSVKGRCTISRDNAKNTVYLQMNSLKPEDTAVYYSAARVSYLGSFTSQRYYYWGLGTQVTVSS,high polyreactivity
3,QVQLVDSGGGLVQAGGSLRLSCAASGSTFRYNVMGWYRQAPGKEREMVATISYSGGSTNYADSVKGRFTISRDNAKNTVYLPMNSLKPEDTAVYYCAARYLYPFYRYWWYDYWGQGTQVTVSS,high polyreactivity
4,QVQLVESGGGLVQEGGSHRLSCAASASTFWSYTMGWYRQAPGKERELVAAISPSGGSTSYADSVKGRFTISRDHAKNTVYLQMNSLKPEDTAVYYGAADDRYGSRYSYWGHGTQVTVSS,high polyreactivity
5,QVQLVESGGGLVQAGGSLRLICAASGRILDNYAMGWYRQAPGKERELVAAISASGASTYYADSVKGRFTISRDNAKNTVYLQMNSLKPEDTAVYYCNAAARYRWQYDYSLYEYGHWGQGTQVTVSS,high polyreactivity
6,QGQLVESGGGLVQAGGSLRLSCAASGSIFLTNAMGWYRQAPGKEREFVAAIDWGGTITYYADSVKGRFTISRDNAKNTVYLQMNSLKPEDTAVYYCNRVFPPTDYEFDSWGQGTQGTVSS,low polyreactivity
7,QVQLVESGGGLVQAGGSLRLSCAASGIIFQSYTMGWYRQPPGKERELVAAIDSGGSTYYADSVKGRFTISRDNAKNTVYLQMNSLKPEDTAVYYCATDYPLSWSPLYDYDYWGQGTQVTVSS,low polyreactivity
8,QVQLVESGGGLVQAGGSLRLSCAASGSTFVRNAMGWYRQAPGKERELVAGISTGDNTYYADSVKGRFTISRDNAKNTVNLQMNSLKPEDTAVYYCAARGLPSNYYYYVHGYIMDYWGQGTQVTVSS,low polyreactivity
9,QVQLVESGGGLVQAGGSLRLSCAASGRNFSSYALGWYRQAPGKERELVAAIRYDAGSTYYADSVKGRFTISRDNAKNTVYLQMNSLKPEDTAVYYCAAGIYSSRHSPYGYWGQGTQVTVSS,high polyreactivity
10,QVQLVESGGGLVQAGGSLRLSCAASGSIFSRNAMGWYRQAPGKERELVAAITRSGGRTYYADSVKGRFTISRDNAKNTVYLQMNSLKPEDTAVYYCNALASQEYDYWGQGTQVTVSS,high polyreactivity
11,QVQLVESGGGLVQAGGSLRLSCAASGFTFTRYAMGWSRQAPGKERELVAAMSRGGTTYADSVKGRFTISRDNAKNTVYLQMNSLKPDDTAVYYCNRLRYCYPQEFGYWGLGTQVTVSS,high polyreactivity
12,QVQLVESGGGLVQAGGSLRLICAASGRTFSGNTMGWYRQAPGKERELVAAITGRGGSTYYADSVKGRFTISRDNAKNTVYLQMNSLKPEDTAVYYCAALRYTFAGRFDYWGHGTQVTVSS,high polyreactivity
13,QVQLVESGGGLVQAGGSLRLSCAASGITFSQYAMGWYRPAPGKERELVAAISWSGVRTYYADSVKGRFTISRDNSKNTVYLQMNSLKPEDTAVYYCAAVPVYYGYDYWGQGTQVTVSS,high polyreactivity
14,QVQLVESGGGLVHAGGSLRLSCAASGRTFGTYAKGWYRQAPGKERELVAAISSRGGSTYYADSVKGRFTISRDNAKNTVYLQMNSLKPEDTAVYYCAQRVKDGSGYWGQGTQVTVSS,high polyreactivity
15,QVQLVESGGGLVQAGGSLRLSCAASGRTFWHNAMGWYRQEPGKERELVAAITIRGGRTYYADSVKGRFTISRDNAKNTVYLQMNSLKPEDTAVYYCAAPPFVKMDYWGQGTQVTVSS,high polyreactivity
16,QVQLVESGGGLVQAGGSLRLSCAASGSTIPLYAMGWYRQAPGKERELVAAISRRGGRTYYADSVKGRFTISRDNAKNTVYLQMNSLKPEDTAVYYCATAQGSRVDYWGQGTQVTVSS,high polyreactivity
17,QVQLVESGGGLVQAGGSLRLSCAASGSIFEVYAMGWYRQAPGKERELVAAIDYSDGTTYYADSVKGRFTISRDNAKNTVYLQMNSLKPEDTAGYYCAADFPGQHYDYWGQGTQVTVSS,low polyreactivity
18,QVQLVESGGGLVQAGGSLRLSCAASGLTFWYYVMGWYRQAPGKERELVAAINIGGSTKYAYSVKGRFTISRDNAKNTVYLQMNSLKPEDTAVYYCAAQYYYTGTRSIRSFDYWGQGTQVTVSS,low polyreactivity
19,QVQLVESAAGLVQAGGSLRLSCAASGRIFRYNTMGWYRQAPGKESELVAAITSGVRTNYADSVKGRFTISRDNAKNTVYLQMNSLKPEDTAVYYCAADPYWFFPNYDSWGQGTQVTVSS,low polyreactivity
20,QVQLVESGGGLVKAGGSLRLSCAASGLTLPANAMGWYRQAPGKEREFVAAISVGGDTTSYADSVKGRFTISRDNAKNTVYLQMNSLKPEDTAVYYCAADEIHDPRTYRGSAGDYWGQGTQVTVSS,low polyreactivity
21,QVQLVESGGGLVQAGGSLRLSCAGSGSTFPRYPMGWYRQAPGKERELVAAISYSGGRTYYADSVKGRFTISRDYAKNTVYLQMNSLKAEDTAVYYCKKRWRGAGTSYDYWGQGTQGTVSS,high polyreactivity
22,QVQLVESGGGLVQAGGSLRLSCAASGRIFRGYAMGWYRQAPGKERELVADISSGASTNYADSVKGRFTISRDNAKNTVYLQMNSLKPEDTAVYYCAAQHSVLAYFEYDYWGQGTQVTVSS,low polyreactivity
23,QVQLVESGGGLVQAGGSLRLSCAASGYTFRWYVMGWYRQAPGKERELVAAISQSGGDTYYADSVKGRFTISRDNAKNTVYLQMNSLKPEDTAVYYCAVGRVGRFYYWGQGTQVTVSS,high polyreactivity
24,QVQLVKSGGGLVQAGGSLRLSCAASGRIFVGYVMGWYRQAPGKERELVAAIDSGGRTNYADSVKGRFTISRDNAKNTVYLQMNSLKPEDTAVYYCNREAAHGSLRWTEMEYWGQGTQVTVSS,low polyreactivity
25,QVQLVESGAGLVQAGGSLRVSCAASGSIFGKNAMGWYRQAPGKERELVAAITSSGGSTYYADSVKGRFTISRDNAKNTVYLQMNSLKPEDTAVYYCAARPWIWARAGYYWGQGTQVTVSS,high polyreactivity
26,QVQLVESGGGLVQAGGSLRLSCAASGRNFRTNAMGWYRQAPGKERELVAAITWRGGNTYYADSVKGRFTISRDNAKNTVYLQMNSLKPEDTAVYYCATAYRYYPSPYDYWGQGTQVSVSS,high polyreactivity
27,QVQLVESGGGLVQAGGSLRLSCAASGITFWFNAMGWYRQAPGQERELVAAITSGVDTNYADSVKGRFTISRDNAKNTVYLQMNSLIPEDTAVYYCAAQGGRLKRGRTTSDYWGQGTQVTVSS,low polyreactivity
28,QVKLVESGGGLVQAGGSLRLSCAASGFIFRGYAMGWYRQAPGKERELVAAINYSGGSTYYADSVKGRFTISRDYAKNTVYLQMNSAKPEYTAVYYCNALGLRYYEYDYWGQGTQVNVSS,low polyreactivity
29,QVQLVESGGGLVQAGGSLRLSCAASGSIFYFYAMGWYRQAPGKERELVATITRGGSTYYADSVKGRFTISRDNAKNTVYLQMNSLKPEDTAVYYCAADGWYWTYIVEYWGQGTQVTVSS,high polyreactivity
30,QVQLVESRGAIVQAGASLRLSSAASGFTFWDYAMGCYRQAPGKERELVAAISSRGTRTYYADSVKGRFTISRDNAKNTVYLQMNSLKPEDTAVYYCATASPDPDYIHNYWGQGTQVTVSS,high polyreactivity
